The results in this text go back to patent publication US20220401484A1 (BIONTECH, published 2022).

The target in test [1] is PRAME peptide … presented by the HLA-A*02:01-encoded molecule (human). The test can be described thus: cell-based or functional assay.
For test [2], the target named is T1, irrelevant peptide peptide on HLA-A*02:01 (human).
T1 peptide: GLSNTHVL
In words: cytokine release.

The target of test [3] is T2, PRAME peptide on HLA-A*02:02 (human).
T2 peptide: SLLQHLIGL
The test can be described thus: cytokine release.

Test [4] has as its target T3, PRAME peptide on HLA-A*02:04 (human).
T3 peptide: SLLQHLIGL
The test can be described thus: cytokine release.

Test [5] has as its target T4, PRAME peptide on HLA-A*02:01 (human).
T4 peptide: SLLQHLIGL
In words: IFN-gamma immunoassay; general statement of the description and claim 4; the same paragraph says preferably less than 10^-8 M (FIG. 2); full-length, on cells.

B1: TCR T23.8-2.1-027-004 (TCR, V domains shown)
V domain 1: GQQLNQSPQSMFIQEGEDVSMNCTSSSIFNTWLWYKQDPGEGPVLLIALYKAGELTSNGRLTAQFGITRKDSFLNISASIPSDVGIYFCAGLADYGGSQGNLIFGKGTKLSVKP
V domain 2: DSGVTQTPKHLITATGQRVTLRCSPRSGDLSVYWYQQSLDQGLQFLIQYYNGEERAKGNILERFSAQQFPDLHSELNLSSLELGDSALYFCASSVWASGGYEQYFGPGTRLTVTE
Regarding B1, the “EC50 value of the relative IFN-gamma release (peptide concentration on T2 cells)” value in test [1] turned out to be 11.6 nM.

B2: TCR T23.8-2.1-027-004 (TCR, V domains shown)
Valpha: B1 V domain 1
Vbeta: DSGVTQTPKHLITATGQRVTLRCSPRSGDLSVYWYQQSLDQGLQFLIQYYNGEERAKGNILERFSAQQFPDLHSELNLSSLELGDSALYFCASSVWASGGYEQYFGPGTRLTVT
For the molecule B2, the binding result in test [2] is reported as “no recognition”; in test [3], “recognises”; in test [4], “recognises”. In addition, the EC50 of peptide in test [5] was < 100 nM.
